The values below are quoted from earlier work in patent US20220347322A1, “METHOD OF TREATING ARTERIOVENOUS MALFORMATIONS BY TARGETING THE EPHRIN PATHWAY” (THE REGENTS OF THE UNIVERSITY OF CALIFORNIA, priority 2019, published 2022).

For the series, the system named is EphB4 signaling. Particulars: in mice; cited reference 38; cited from earlier work.

B1: sEphB4: The soluble extracellular domain of EphB4; pharmacological inhibitor of EphB4 signaling (protein, UniProt P54760 16-539, looked up)
extracellular domain: LEETLLNTKLETADLKWVTFPQVDGQWEELSGLDEEQHSVRTYEVCDVQRAPGQAHWLRTGWVPRRGAVHVYATLRFTMLECLSLPRAGRSCKETFTVFYYESDADTATALTPAWMENPYIKVDTVAAEHLTRKRPGAEATGKVNVKTLRLGPLSKAGFYLAFQDQGACMALLSLHLFYKKCAQLTVNLTRFPETVPRELVVPVAGSCVVDAVPAPGPSPSLYCREDGQWAEQPVTGCSCAPGFEAAEGNTKCRACAQGTFKPLSGEGSCQPCPANSHSNTIGSAVCQCRVGYFRARTDPRGAPCTTPPSAPRSVVSRLNGSSLHLEWSAPLESGGREDLTYALRCRECRPGGSCAPCGGDLTFDPGPRDLVEPWVVVRGLRPDFTYTFEVTALNGVSSLATGPVPFEPVNVTTDREVPPAVSDIRVTRSSPSSLSLAWAVPRAPSGAVLDYEVKYHEKGAEGPSSVRFLKTSENRAELRGLKRGASYLVQVRARSEAGYGPFGQEHHSQTQLDESEGWREQLA
modifications: extracellular domain
As to B1, the “inhibition of EphB4 signaling” value is reported as “completely inhibits EphB4 signaling”.
